The text below walks through data of doi:10.1101/2024.11.20.624454 (bioRxiv, 2024).

The target in this experiment is T1, Mus musculus SPO11, MBP-tagged (Mus musculus, UniProt Q9WTK8 1-396).
T1 sequence (looked up): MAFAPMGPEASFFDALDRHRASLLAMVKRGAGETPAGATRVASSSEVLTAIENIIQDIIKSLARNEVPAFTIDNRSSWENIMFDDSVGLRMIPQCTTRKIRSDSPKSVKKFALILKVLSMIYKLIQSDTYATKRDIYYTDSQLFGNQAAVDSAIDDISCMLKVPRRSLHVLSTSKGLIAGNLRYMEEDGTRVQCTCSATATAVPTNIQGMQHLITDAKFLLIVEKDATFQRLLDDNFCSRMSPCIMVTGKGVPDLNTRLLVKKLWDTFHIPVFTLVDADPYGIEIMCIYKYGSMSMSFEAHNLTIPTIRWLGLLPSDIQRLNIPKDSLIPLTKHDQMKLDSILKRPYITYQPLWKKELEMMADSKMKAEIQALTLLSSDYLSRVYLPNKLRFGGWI
The experiment in a line: SEC-MALS.

B1: Mus musculus TOP6BL, HisFlag-tagged (natural protein, UniProt J3QMY9 1-579, looked up)
chain: MERTALAVCEILRYLIIHWKCEAGTAKGTLLDGQLVISIEALRSKHLPDSLHCIITIASTRSVYGGLNFKKFLQEIQPALPRLSAKLALASEEGGRSQDASGIAPCQVTFEVDENSQSLMTDCLVIKHFLRKIIIVHHKLKFSFSVAVNGTLSAETFGAENEPTLRLDNGVTLVVGFQRYVSKPKLNWSEAHCSRIHPVLGHPAPLFIPDAKADTGLLGELTLTPAAALCPSPKGFSSQLCRISSVSIFLYGPLGLPLLSSDQDQPSTAVFRDTSYFIDWKKYNLFMVPNLDLNLDTQSVLPDVNYKAESPEGNQSQNMNAQGPALLLFLFVDFQSDVPVQQAKIWGLHTLLTAHLSAILSESRSTVQQSIQSAVDQVWQLYHHDAKTQQRLQASLSVAVNSIMSVLTGSTRSSFRKTCLQALEAADTQEFGVKLHRIFYDITQHQFLKHCSCDTEQHLTPEKNISAQNTKDQHKNIAQEFPEESIGQAENKRPKRGSPNHGREESRVLGSARDRSPPKSATRDRELTEVSLTARGSQTQAAHGRAQAAEAASPAGGLEDLWLQEVSNLSEWLNPGHRS
Take B1: the “stoichiometry N” value was determined as 1.
